Results published in EP4491631A1 (Anaveon AG, dated 2025).
Changes are numbered by the printed parent chain.

T1: IL-2R CD122-CD132 on Jurkat-PD1+ CD122+ cells (UniProt P14784 27-551; P31785 23-369)
T1 sequence (looked up) 1: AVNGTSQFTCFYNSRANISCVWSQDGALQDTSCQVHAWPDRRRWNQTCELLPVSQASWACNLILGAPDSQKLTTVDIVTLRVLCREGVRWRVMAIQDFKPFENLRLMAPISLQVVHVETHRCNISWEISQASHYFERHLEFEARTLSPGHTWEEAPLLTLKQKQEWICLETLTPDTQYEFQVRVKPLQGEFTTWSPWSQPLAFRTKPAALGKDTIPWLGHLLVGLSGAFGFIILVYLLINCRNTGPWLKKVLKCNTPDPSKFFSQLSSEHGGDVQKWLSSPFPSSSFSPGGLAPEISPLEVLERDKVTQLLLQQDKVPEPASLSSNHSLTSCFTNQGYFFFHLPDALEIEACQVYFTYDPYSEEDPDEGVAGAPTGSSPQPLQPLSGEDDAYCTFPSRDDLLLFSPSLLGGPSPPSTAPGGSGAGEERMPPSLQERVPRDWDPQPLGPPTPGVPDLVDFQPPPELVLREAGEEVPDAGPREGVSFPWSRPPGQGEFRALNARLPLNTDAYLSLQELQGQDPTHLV
T1 sequence (looked up) 2: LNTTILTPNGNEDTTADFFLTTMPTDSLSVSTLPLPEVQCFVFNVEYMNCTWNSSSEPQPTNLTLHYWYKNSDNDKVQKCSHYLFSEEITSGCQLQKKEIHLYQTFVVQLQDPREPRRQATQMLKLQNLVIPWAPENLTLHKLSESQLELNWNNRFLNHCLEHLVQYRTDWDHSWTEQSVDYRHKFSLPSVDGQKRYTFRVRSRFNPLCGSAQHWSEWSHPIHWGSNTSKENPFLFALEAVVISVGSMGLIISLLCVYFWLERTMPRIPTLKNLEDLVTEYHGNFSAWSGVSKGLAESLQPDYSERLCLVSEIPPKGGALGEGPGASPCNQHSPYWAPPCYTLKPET

B1: JLI141 (bispecific antibody, human IgG1, lambda, L234A L235A)
chain 1: EVQLLESGGGLVQPGGSLRLSCAASGFTFSINAMTWVRQAPGKGLEWVSTISGSGFSTYYADSLKGRFTISRDNSKNTLYLQMNSLRAEDTAVYYCAKEVYGDYWGQGTLVTVSSASTKGPSVFPLAPSSKSTSGGTAALGCLVKDYFPEPVTVSWNSGALTSGVHTFPAVLQSSGLYSLSSVVTVPSSSLGTQTYICNVNHKPSNTKVDKRVEPKSCDKTHTCPPCPAPEAAGGPSVFLFPPKPKDTLMISRTPEVTCVVVDVSHEDPEVKFNWYVDGVEVHNAKTKPREEQYNSTYRVVSVLTVLHQDWLNGKEYKCKVSNKALAAPIEKTISKAKGQPREPQVYTLPPSREEMTKNQVSLTCLVKGFYPSDIAVEWESNGQPENNYKTTPPVLDSDGSFFLTSKLTVDKSRWQQGNVFSCSVMHEALHNHYTQKSLSLSPGK
chain 2: not shown
chain 3: AIRLTQSPSSFSASTGDRVTITCKASQSVDYGGGNFHLRPRDLISNINVIVLELKGSETTFMCEYADETATIVEFLNRWITFSQSIISTLTPTSSSTKKTQLQLEHLLLDLQMILNGINNYKNPKLTRMLTFKFYMPKKATELKHLQCLEEELKPLEEVLNLAQSKGGGGDSYMNWYQQKPGKAPKLLIYAASNLESGVPSRFSGSGSGTDFTLTISSLQSEDFATYYCQQSNEDPYTFGGGTKVEIKGGGGSGGGGSGGGGSEVQLVQSGAEVKKPGESLKISCKGSGYAFTNYLIEWVRQMPGKGLEWMGVINPGSGGTNYNEKFKGQVTISADKSISTAYLQWSSLKASDTAMYYCARWRGEGYYAYFDVWGQGTTVTVSSGGGGSGGGGSEVQLLESGGGLVQPGGSLRLSCAASGFTFSINAMTWVRQAPGKGLEWVSTISGSGFSTYYADSLKGRFTISRDNSKNTLYLQMNSLRAEDTAVYYCAKEVYGDYWGQGTLVTVSSASTKGPSVFPLAPSSKSTSGGTAALGCLVKDYFPEPVTVSWNSGALTSGVHTFPAVLQSSGLYSLSSVVTVPSSSLGTQTYICNVNHKPSNTKVDKRVEPKSCDKTHTCPPCPAPEAAGGPSVFLFPPKPKDTLMISRTPEVTCVVVDVSHEDPEVKFNWYVDGVEVHNAKTKPREEQYNSTYRVVSVLTVLHQDWLNGKEYKCKVSNKALAAPIEKTISKAKGQPREPQVYTLPPSREEMTKNQVSLYCLVKGFYPSDIAVEWESNGQPENNYKTTPPVLDSDGSFFLYSKLTVDKSRWQQGNVFSCSVMHEALHNHYTQKSLSLSPGK
B2: MDS446 (bispecific antibody, human IgG1, kappa, L234A L235A)
chain 1: QVQLVQSGAEVKKPGASVKVSCKASGYTFTNFYIHWVRQAPGQGLEWMGSIYPNYGITAYNQKFKDRVTMTVDTSTSTAYMELRSLRSDDTAVYYCARGYSYAMDYWGQGTTVTVSSASTKGPSVFPLAPSSKSTSGGTAALGCLVKDYFPEPVTVSWNSGALTSGVHTFPAVLQSSGLYSLSSVVTVPSSSLGTQTYICNVNHKPSNTKVDKRVEPKSCDKTHTCPPCPAPEAAGGPSVFLFPPKPKDTLMISRTPEVTCVVVDVSHEDPEVKFNWYVDGVEVHNAKTKPREEQYNSTYRVVSVLTVLHQDWLNGKEYKCKVSNKALAAPIEKTISKAKGQPREPQVYTLPPSREEMTKNQVSLTCLVKGFYPSDIAVEWESNGQPENNYKTTPPVLDSDGSFFLTSKLTVDKSRWQQGNVFSCSVMHEALHNHYTQKSLSLSPGK
chain 2: DIQMTQSPSSVSASVGDRVTITCSASQGISGDLNWYQQKPGKAPKLLIYHTSQLHSDVPSRFSGSGSGTDFTLTISSLQPEDFATYYCQGYSKDLLTFGGGTKLEIKRTVAAPSVFIFPPSDEQLKSGTASVVCLLNNFYPREAKVQWKVDNALQSGNSQESVTEQDSKDSTYSLSSTLTLSKADYEKHKVYACEVTHQGLSSPVTKSFNRGEC
chain 3: AIRLTQSPSSFSASTGDRVTITCKASQSVDYGGGNFHLRPRDLISNINVIVLELKGSETTFMCEYADETATIVEFLNRWITFSQSIISTLTPTSSSTKKTQLQLEHLLLDLQMILNGINNYKNPKLTRMLTFKFYMPKKATELKHLQCLEEELKPLEEVLNLAQSKGGGGDSYMNWYQQKPGKAPKLLIYAASNLESGVPSRFSGSGSGTDFTLTISSLQSEDFATYYCQQSNEDPYTFGGGTKVEIKGGGGSGGGGSGGGGSEVQLVQSGAEVKKPGESLKISCKGSGYAFTNYLIEWVRQMPGKGLEWMGVINPGSGGTNYNEKFKGQVTISADKSISTAYLQWSSLKASDTAMYYCARWRGEGYYAYFDVWGQGTTVTVSSGGGGSGGGGSQVQLVQSGAEVKKPGASVKVSCKASGYTFTNFYIHWVRQAPGQGLEWMGSIYPNYGITAYNQKFKDRVTMTVDTSTSTAYMELRSLRSDDTAVYYCARGYSYAMDYWGQGTTVTVSSASTKGPSVFPLAPSSKSTSGGTAALGCLVKDYFPEPVTVSWNSGALTSGVHTFPAVLQSSGLYSLSSVVTVPSSSLGTQTYICNVNHKPSNTKVDKRVEPKSCDKTHTCPPCPAPEAAGGPSVFLFPPKPKDTLMISRTPEVTCVVVDVSHEDPEVKFNWYVDGVEVHNAKTKPREEQYNSTYRVVSVLTVLHQDWLNGKEYKCKVSNKALAAPIEKTISKAKGQPREPQVYTLPPSREEMTKNQVSLYCLVKGFYPSDIAVEWESNGQPENNYKTTPPVLDSDGSFFLYSKLTVDKSRWQQGNVFSCSVMHEALHNHYTQKSLSLSPGK
B3: TMU471 (bispecific antibody, human IgG1, kappa, L234A L235A)
chain 1: B2 chain 1 with S50R
chain 2: B2 chain 2 with L54R
chain 3: B2 chain 3 with S444R
B4: YPW986 (bispecific antibody)
chain 1: EVQLLESGGGLVQPGGSLRLSCAASGFTFSINAMTWVRQAPGKGLEWVSTISGSGFSTYYADSLKGRFTISRDNSKNTLYLQMNSLRAEDTAVYYCAKEVYGDYWGQGTLVTVSSASVAAPSVFIFPPSDEQLKSGTASVVCLLNNFYPREAKVQWKVDNALQSGNSQESVTEQDSKDSTYSLSSTLTLSKADYEKHKVYACEVTHQGLSSPVTKSFNRGECDKTHTCPPCPAPEAAGGPSVFLFPPKPKDTLMISRTPEVTCVVVDVSHEDPEVKFNWYVDGVEVHNAKTKPREEQYNSTYRVVSVLTVLHQDWLNGKEYKCKVSNKALAAPIEKTISKAKGQPREPQVYTLPPSREEMTKNQVSLTCLVKGFYPSDIAVEWESNGQPENNYKTTPPVLDSDGSFFLTSKLTVDKSRWQQGNVFSCSVMHEALHNHYTQKSLSLSPGK
chain 2: RSVLTQPPSASGTPGQRVSISCSGASSNIGSQSVFWYQQLPGTAPKLLIYSNNQRPSGVPDRFSGSKSGTSASLAISGLRSEDEADYYCAAWDDSLSIWVFGGGTKLTVLSSASTKGPSVFPLAPSSKSTSGGTAALGCLVKDYFPEPVTVSWNSGALTSGVHTFPAVLQSSGLYSLSSVVTVPSSSLGTQTYICNVNHKPSNTKVDKRVEPKSC
chain 3: EVQLVQSGAEVKKPGESLKISCKGSGYAFTNYLIEWVRQMPGKGLEWMGVINPGSGGTNYNEKFKGQVTISADKSISTAYLQWSSLKASDTAMYYCARWRGEGYYAYFDVWGQGTTVTVSSASTKGPSVFPLAPSSKSTSGGTAALGCLVKDYFPEPVTVSWNSGALTSGVHTFPAVLQSSGLYSLSSVVTVPSSSLGTQTYICNVNHKPSNTKVDKRVEPKSCDKTHTCPPCPAPEAAGGPSVFLFPPKPKDTLMISRTPEVTCVVVDVSHEDPEVKFNWYVDGVEVHNAKTKPREEQYNSTYRVVSVLTVLHQDWLNGKEYKCKVSNKALAAPIEKTISKAKGQPREPQVYTLPPSREEMTKNQVSLYCLVKGFYPSDIAVEWESNGQPENNYKTTPPVLDSDGSFFLYSKLTVDKSRWQQGNVFSCSVMHEALHNHYTQKSLSLSPGK
chain 4: not shown
B5: RIB426 (bispecific antibody, human IgG1, kappa, L234A L235A)
chain 1: QVQLVQSGAEVKKPGASVKVSCKASGYTFTNFYIHWVRQAPGQGLEWMGRIYPNYGITAYNQKFKDRVTMTVDTSTSTAYMELRSLRSDDTAVYYCARGYSYAMDYWGQGTTVTVSSASVAAPSVFIFPPSDEQLKSGTASVVCLLNNFYPREAKVQWKVDNALQSGNSQESVTEQDSKDSTYSLSSTLTLSKADYEKHKVYACEVTHQGLSSPVTKSFNRGECDKTHTCPPCPAPEAAGGPSVFLFPPKPKDTLMISRTPEVTCVVVDVSHEDPEVKFNWYVDGVEVHNAKTKPREEQYNSTYRVVSVLTVLHQDWLNGKEYKCKVSNKALAAPIEKTISKAKGQPREPQVYTLPPSREEMTKNQVSLTCLVKGFYPSDIAVEWESNGQPENNYKTTPPVLDSDGSFFLTSKLTVDKSRWQQGNVFSCSVMHEALHNHYTQKSLSLSPGK
chain 2: DIQMTQSPSSVSASVGDRVTITCSASQGISGDLNWYQQKPGKAPKLLIYHTSQRHSDVPSRFSGSGSGTDFTLTISSLQPEDFATYYCQGYSKDLLTFGGGTKLEIKSSASTKGPSVFPLAPSSKSTSGGTAALGCLVKDYFPEPVTVSWNSGALTSGVHTFPAVLQSSGLYSLSSVVTVPSSSLGTQTYICNVNHKPSNTKVDKRVEPKSC
chain 3: B4 chain 3
chain 4: not shown
B6: QAB373 (bispecific antibody, human IgG1, kappa, L234A L235A)
chain 1: B5 chain 1 with R50S
chain 2: B5 chain 2 with R54L
chain 3: B4 chain 3
chain 4: not shown
B7: PXU588 (bispecific antibody)
chain 1: B4 chain 1
chain 2: B4 chain 2 with Q32S
chain 3: B4 chain 3
chain 4: not shown

Target: T1, IL-2R CD122-CD132 on Jurkat-PD1+ CD122+ …
Test: cell-based or functional assay

EC50 value for pSTAT5 induction | Binder
0.2 nM | B1
60 pM | B2
60 pM | B3
43.9 nM | B4
0.12 nM | B5
70 pM | B6
5.37 nM | B7
